Experimental data from the DeepSol protein solubility set.

Assay: soluble on expression in E. coli; label from the status in PepcDB or PDB records

Soluble on expression in E. coli, soluble:
MSGFDLIIFDCDGVLVDSEIIAAQVESRLLTEAGYPISVEEMGERFAGMTWKNILLQVESEASIPLSASLLDKSEKLLDMRLERDVKIIDGVKFALSRLTTPRCICSNSSSHRLDMMLTKVGLKPYFAPHIYSAKDLGADRVKPKPDIFLHGAAQFGVSPDRVVVVEDSVHGIHGARAAGMRVIGFTGASHTYPSHADRLTDAGAETVISRMQDLPAVIAAMAEWEGAF, MITILGPTACGKTRLAVSLAYRLETEIISADSRQIYRGMDIGTGKDLADYQVGGTTIPCHLIDIRPAGDKYNLFAYQHDFHQAYASILARGMDPILCGGTGMYIEAVLKGYHLPDVPPNPTLRDRLQGKSLTELTLILAAYGPLHNKTDVDSAQRAIRAIEIAEYIKNNPVESTEFPPIDSLIIGLDLDRDTRRKRITDRLHARMHEGMIEEVKGLLDSGIPAEDLIYYGLEYKFVTLYLTGQTDYESMFTGLETAIHQFAKRQMTWFRGMERRGFLIHWIDALLPADEQCEAVMKLYGANGLEHHHHHH, MKIAIVGTGISGLTCGYYLHQQHDITLFEANDYIGGHTATVDVRVGIEDYAIDTGFIVYNDRTYPNFIKMMNEIGVEGIPTQMSFSVRNDGNGLEYNGHTLTTLFAQKRNWLNPKFYRFVLEILRFNKLAKASATEQISSSQSLGAFLDEHQFSDFFSDNYILPMGAAIWSSSLADMRAFPLMFFLRFFLNHGLLDVTNRPQWYVIKGGSRAYIPPLTQGFADKIRLNSPVEKVVRSEQGVAIYANGQCEWFDEVIFACHSDQALAMLSDASSCENDILSNMAYQANDVVLHTDTSVLPKRKSAWASWNYLLEGGEEEQQRLPSLTYNMNILQHIDSSHTFCVTLNRTEDIDENKILRQFTYHHPVFTTESIAAQQRKEEIQGAQHTWFCGAYWYNGFHEDGVRSALDVVKGIAAKHNEKNDTLYEQGAALEHHHHHH, MSFCSFFGGEVFQNHFEPGVYVCAKCSYELFSSHSKYAHSSPWPAFTETIHPDSVTKCPEKNRPEALKVSCGKCGNGLGHEFLNDGPKRGQSRFCIFSSSLKFVPKGKEAAASQGHLEHHHHHH, EQEVSLDLILVEEYDSLIEKMSNWNFPIFELVEKMGEKSGRILSQVMYTLFQDTGLLEIFKIPTQQFMNYFRALENGYRDIPYHNRIHATDVLHAVWYLTTRPVPGLQQIHNGCGTGNETDSDGRINHGRIAYISSKSCSNPDESYGCLSSNIPALELMALYVAAAMHDYDHPGRTNAFLVATNAPQAVLYNDRSVLENHHAASAWNLYLSRPEYNFLLHLDHVEFKRFRFLVIEAILATDLKKHFDFLAEFNAKANDVNSNGIEWSNENDRLLVCQVCIKLADINGPAKVRDLHLKWTEGIVNEFYEQGDEEANLGLPISPFMDRSSPQLAKLQESFITHIVGPLCNSYDAAGLLPGQWLEAEEDNDTESGDDEDGEELDTEDEEMENNLNPKPPRRKSRRRIFCQLMHHLTENHKIWK, MGSSHHHHHHSSGLVPRGSHMASMDGKQGGMDGSKPAGPRDFPGIRLLSNPLMGDAVSDWSPMHEAAIHGHQLSLRNLISQGWAVNIITADHVSPLHEACLGGHLSCVKILLKHGAQVNGVTADWHTPLFNACVSGSWDCVNLLLQHGASVQPESDLASPIHEAARRGHVECVNSLIAYGGNIDHKISHLGTPLYLACENQQRACVKKLLESGADVNQGKGQDSPLHAVVRTASEELACLLMDFGADTQAKNAEGKRPVELVPPESPLAQLFLEREGASLPKPKP, MSLNVFNTASDEDIKKGLASDVYFERTISAIGDKCNDLRVAMEATVSGPLDTWINFTGLDEVLKLLEGLDVDLYAIPEGTILFPRDANGLPVPFIRVEGRYCDFGMYETAILGFICQASGISTKASKVRLAAGDSPFFSFGIRRMHPAISPMIDRSAYIGGADGVSGILGAKLIDQDPVGTMPHALSIMLGDEEAWKLTLENTKNGQKSVLLIDTYMDEKFAAIKIAEMFDKVDYIRLDTPSSRRGNFEALIREVRWELALRGRSDIKIMVSGGLDENTVKKLREAGAEAFGVGTSISSAKPFDFAMDIVEVNGKPETKRGKMSGRKNVLRCTSCHRIEVVPANVQEKTCICGGSMQNLLVKYLSHGKRTSEYPRPKEIRSRSMKELEYFKDISEGHHHHHH, MAHHHHHHMPTEADLEKIRRERAARYQQLSEAEKPRVEPCPHCHELPYKKEVCPETGIFHNLERHTIVGGAVVQSNIVRSSELMEAIDRSRIRWVESRTQMVRADAVSLNLFQSFVRQLDWSLQRYGILYGKYDASLNLIEVHAIYEPEQHGDAYTFHYLPDKRLPNVDRIAALLGLRRVGAVCTHPPRDIEEMVLSSREILLCAREQSRFGDECVLLTMSPSLTTGRIECQAWQTSPQAVHFYRLGVLREKSDDYSDLESAKYVHSSIPLEVAQQETDEKGHPRVVTMAPSHDIDTRWFTSYVAVQQFESPVVRNLFMRVSRPGMEPPAMINLRNYMEDPKRRKVPLIEKLADFHVLIFLAESVFSVADDMPVIIGAITKQRPAEDAMHYGEVLKLYLEQ, MSANGCCCCGGVDSREQKLNEIIEKYKNTKGALVPVLHEAQEVYGYLPLEVQKKIAEGLNIPLAEVYGVVTFYTQFSLNPKGKYKIQVCMGTACYVKGSGAILEKLKEKLEIDVGECTSDGKFSLEACRCIGACGLAPVIMINDDVYGRLVPDDIEGIIEKYKKE

Soluble on expression in E. coli, not soluble:
MVWQREKLLQVNEIGYRDIDAGVPMQRDTLFRIASMTKPVTVAAAMSLVDEGKLALRDPITRWAPELCKVAVLDDAAGPLDRTHPARRAILIEDLLTHTSGLAYGFSVSGPISRAYQRLPFGQGPDVWLAALATLPLVHQPGDRVTYSHAIDVLGVIVSRIEDAPLYQIIDERVLGPAGMTDTGFYVSADAQRRAATMYRLDEQDRLRHDVMGPPHVTPPSFCNAGGGLWSTADDYLRFVRMLLGDGTVDGVRVLSPESVRLMRTDRLTDEQKRHSFLGAPFWVGRGFGLNLSVVTDPAKSRPLFGPGGLGTFSWPGAYGTWWQADPSADLILLYLIQHCPDLSVDAAAAVAGNPSLAKLRTAQPKFVRRTYRALGL, MGSDKIHHHHHHMHLDLLICSKPFIFNKVVDTKPFYQRTIMYKHTVSQHVFTFDSLTELMAKASPLRSGDQLAGIAAGSYQERIAAQMALADLPLTTFLQEPLIPYESDEVTRLIFDTHEHTAFTAIAHLTVGDFRNFLLSNNTHTSQLTALQKAITPEMAAAVSKIMNVQDLILVSSKCEIITRFRNTIGVKGCMSTRLQPNHPTDDLKAIMASVLDGLFYGSGDAVIGINPATDHISTQVQLLKLIDAVREQYAIPTQSCILSHITNTILAIEQGAPVDLVFQSIGGTEKTNSSFGINLSLLQEGYEAALSLGRGTIGNNVMYFETGQGSSLSANAHYGIDQQTLEARAYAVARAFNPLLVNTVVGFIGPEYLFDGKQIIRAGLEDHFCGKLMGLPMGCDICYTNHADADQDDMDALLTLLGVAGCNFIMGVPGSDDIMLNYQSTSFHDALYIRKLLNVKPAPEFEEWLLKMGIMNTQHEITVHRIYCG, MKTMSEEDSRTASRYAMIREVLRNAIVSGAAAKGLVLLEAPLGELFGTSRVPVRKALNLLHEEGLISRFDGRGYLVNPERQHVEPLRLSLSHKQFGLDSNEELVDTRPLGERIHDEIGAALSACIAFGHYRLDEQSAAQHYGVSRSVVREALMRLRDRGLVEKEPYSQWLAGPLTAREITEDYELRACLEPEALRLTAPQLSRETLEAMLTRVVEAQNAEQCSLEDIERLEEDLHQQCLAGLQNRKIATLISQAQSPMIINRIFYRLLDIGADEAMLAEHRLIIELLLHGAFDAAALNLKEHLQRARQRMLQRLKVLSVLPEQEVPGYLTRLS, MAKTYDYLFKLLLIGDSGVGKTCVLFRFSDDSFNNSFISTIGIDFKIRTIELDGKKIKLQIWDTAGQERFRTITTAYYRGAMGIILVYDITNERSFENIKNWIRNIEEHAASDVERMIIGNKCDIEERREVSRDRGEQLAIEYGTKFLETSAKANLNIDEAFFTLARDIKSKMEQNEMRAGGSVSNTGRVNVGGSGTQKKSFFSNWSCNLL, MGRGSFTQIDTPDQVTERMRALLVKLESPAVTDLTATFSEPGIDVTPARLPDLYRGEPLTLSARMGQARGTLTLTGRIGGQPWQTQLHLDAAQDGTGIGKLWARAKIAEAETARLTGGLTAEAADAAILRLALDHGLTTRLTSLVAVDATPRRPAGMRLASTELPLNLPAGWDFETVFGTQDELEHHHHHH, MGSDKIHHHHHHVSQPTSSLVGKSRASIYRDLVLSAQGVRFGKTAGKDVDVIKYLFALLILLAFSAKGYHPKEAHEPLTTLAVDAMAQCGINLSESTRLQLMQGNLAMDEGAGKLPKELMNTSFAKAVFPMTKRIHNWHFYHPDKTADAQRLAGKTDMSMARLWQAAQAGLEQAPAEHKAYYLGAIIHLIQDVTVPAHAVPVYHGPKIIAWQREFAPLVNYLGFGFRGIFVIHDPVDDWPVNSTGAEQPIAAIPCPELHAASSNLSANFDALRTRVARQTLTALDNPIPGCAAPWRLFWREDLGHRYFAGYTQGIKPFGRANSLSGEGISIDGRPCEPDYQGFVETRHRAAIEATMAALQLSQLGVVSPVPTEAQ, MEHLGKVFREFRTSGNYSLKEAAGESCSTSQLSRFELGESDLAVSRFFEILDNIHVTIENFMDKARNFHNHEHVSMMAQIIPLYYSNDIAGFQKLQREQLEKSKSSTTPLYFELNWILLQGLICQRDASYDMKQDDLGKVADYLFKTEEWTMYELILFGNLYSFYDVDYVTRIGREVMEREEFYQEISRHKRLVLILALNCYQHCLEHSSFYNANYFEAYTEKIIDKGIKLYERNVFHYLKGFALYQKGQCKEGCKQMQEAMHIFDVLGLPEQVAYYQEHYEKFVKS, MAHHHHHHMCVHTFVRMNAWMCSSLSITQQNTITPPHYMQNSAFRVASLLQSRHRRGICDEGESTLAKLTQGVEMFLQHAADVPPVMLEKLSEVGDADTSTNGCSERHDDVDESMDEAEVHLSVVAGVLEPREMPKNVSTMSGLLLPTADNRKALERQKVEEAQAMLNLLAALTANNKKENTIGALTGTSEAEVDDESTTTSDESVVICYADELESDTTSSCSEADAQQEPQRSARIIELN, MAAPAAVRRGGRSTSSAMAMDSGRPVTSGILASLCEQWQNQPRTPLSHRSGNLPMSDPDVLIIGAGHNGLTCAAYLARAGLKVKVVERRNVVGGAAVTQEFHPGFRNSVAAYTVSLLNPKVIADLKLHEHGLRIVERKAQNFLPAPDGQYLLTGSNTTAASLARLSAHDAAAFGGFAAELETIADVLRHFVLRAPPNLVVQFGLPAIRESLNALETANRLRALTMEQQRLLLDLFTCSAGEMLDARFEHDLVKALFGFDAIVGNYASPYAAGSAYVMLHHAFGEVNGKKGVWGHAIGGMGAITSAMAAAARAAGAEIETSAGVREVLVEKDRVVGVTLDDGRNVRARFVASNVNPKLLYTRLLPQDALPDDVRRRMQNWKTGSGTFRMNVALSRLPSFTALPGDGDHLTAGIIIAPSLGYMDRAYQDARAHGWSREPVVEMLIPSTLDDSLAPKGQHVASLFCQHVAPELPDGASWDDHRDEVADLMIATVDRYAPGFAASVLGRQILSPLDLEREFGLVGGDIFHGALSLNQLFSARPLLGHADYRGPLKGLYHCGSGAHPGGGVTGAPGHNAAAAILNDHRSLFASRGLEHHHHHH, MMLSKVLRNSPLLFRVAQPKDHERIIKFLDKHFAKEEPCSRALKISPEISRGVFTATVTRCLTTPFSTVVLQENGDLAACLLASVWNRTDPLENADFDDTGLPENFKLFIQFLNKAHLNFWKIAPPNVNSIIHREIGSVAPQFTRLGIATKMVTTNMTKRNLKKYNIGGVLSETTSLANQIVLEKAGFKCLKELPYSTIVDSKGNQVLKLDDGTTSLCLNFKPIEEYENLPE
